Source: the supplement of paper PMC10126150
± gives the standard deviation of the averaged measurements.

System: ATP
Assay: switch fluorescence ratio, 500 uM ATP over buffer (Cy3 cluster intensity, sum of 5 cycles each) (fold (ratio)); higher = stronger signal-on switching upon ATP binding; sequences stand for … in TCGTCGGCAGCGTCAGATGTGTATAAGAGACAGTTTTTTTTTTTTTTTTTTTTTTTTT…TC
Conditions: aptamer strand: ATP DNA aptamer (quencher-CACCTGGGGGAGTATTGCGGAGGAAGG + anchor), 100 nM annealed; ATP concentration: 500 uM
Outline: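 Clusters with intensities outside 100-1000 RFU were excluded. The remaining Cy3-labelled switching-strand clusters on a modified Illumina MiSeq flow-cell had been annealed to 100 nM quencher-labelled ATP aptamer and imaged in selection buffer, then after 15 min with 500 uM ATP at 22 °C, for five cycles separated by NaOH stripping and re-annealing. The fluorescence ratio, averaged per switch-domain sequence, is each cluster's summed target-cycle Cy3 intensity over its summed buffer-cycle Cy3 intensity.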
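Further: ATP exposure 15 min at 22 °C before imaging.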

Row | Sequence | switch fluorescence ratio
1 | TAGAAGAAGG | 0.9842 ± 0.0031
2 | GTGCTAGGGT | 0.988 ± 0.02
3 | TGTCGTGTTT | 0.9679 ± 0.0014
4 | CAAGTTAAAG | 1.01 ± 0.015
5 | GATTTTGTAA | 1.012 ± 0.004
6 | TATAGGATT | 0.986 ± 0.015
7 | TGCAAGTACA | 1.41 ± 0.063
8 | GGTGGGGCAC | 0.999 ± 0.041
9 | TTTGGTCATA | 0.983 ± 0.024
10 | GATTGGTATT | 0.995 ± 0.044
11 | GCGTTCCGTA | 1.02 ± 0.039
12 | TTGTGGGGTT | 0.984 ± 0.048
13 | AGAAAAGGGA | 0.995 ± 0.017
14 | CAAAAAACGG | 1.13 ± 0.23
15 | GGGGTAGTAC | 1.03 ± 0.026
16 | TTGGTTACGT | 1 ± 0.039
17 | TGGGCTATAG | 1.03 ± 0.032
18 | CAAAAATGGC | 1.02 ± 0.011
19 | TATAGTCGGG | 0.98 ± 0.025
20 | CCATTGTTAT | 0.988 ± 0.017
21 | CAAGAGAATT | 0.9939 ± 0.005
22 | TAAAGGAATT | 1.05 ± 0.03
23 | TCATGGGGCG | 0.993 ± 0.012

Row | Sequence | switch fluorescence ratio
24 | ACTGTAGTCT | 1.06 ± 0.012
25 | GTCGAAACAT | 1.04 ± 0.075
26 | AGGCAACCAA | 1.02 ± 0.017
27 | AAAAGTAGTT | 1.01 ± 0.038
28 | GGGAGGTTTT | 1.04 ± 0.084
29 | TTGAGGTTAT | 1.02 ± 0.061
30 | TAGGAGTTGT | 0.995 ± 0.016
31 | GGTTAGATAC | 1.19 ± 0.025
32 | CGCTGTACAG | 0.96028 ± 0.00038
33 | TCGTTTGGTG | 0.986 ± 0.045
34 | CGTGGGGAAG | 0.998 ± 0.023
35 | TGCTAACGTG | 0.977 ± 0.0057
36 | GAGTGCGAAC | 1.05 ± 0.082
37 | ATATTGGGGG | 0.998 ± 0.025
38 | TAAAATATTA | 1.03 ± 0.02
39 | GAATTATTGG | 0.975 ± 0.022
40 | AGCAGGAGGG | 1.022 ± 0.0081
41 | ATGCAGGAGT | 0.98647 ± 0.00087
42 | AAGCGCGACG | 0.991 ± 0.027
43 | ATAACGCTCG | 1 ± 0.018
44 | TGTAATTACA | 1.003 ± 0.0061
45 | AGTTTGGTGC | 1.05 ± 0.027
46 | CATTCGCCTC | 2.218 ± 0.015

Row | Sequence | switch fluorescence ratio
47 | ACTCTGGCGT | 1.08 ± 0.024
48 | AAAATGTTCC | 1.19 ± 0.025
49 | TGTTTCTAGG | 0.979 ± 0.029
50 | GTTGTAACGT | 0.988 ± 0.054
51 | ATTATTAAGT | 0.987 ± 0.025
52 | TATGGTCACC | 1.03 ± 0.03
53 | TTGTGGGTAG | 1.02 ± 0.043
54 | GATCACTCGT | 1 ± 0.048
55 | TTAGCGAGGC | 2.13 ± 1.2
56 | GGGATGAAGA | 1 ± 0.013
57 | TGGGAGGTAC | 1.24 ± 0.3
58 | TACTTGGTT | 1.01 ± 0.02
59 | TGGGGCAGCA | 1.01 ± 0.042
60 | AAAGGAGGTA | 1 ± 0.012
61 | ACTGGGGTTT | 0.982 ± 0.024
62 | TCGCTGTTGT | 1.01 ± 0.0019
63 | TACGTATTCC | 1.171 ± 0.011
64 | TAAATAATTG | 1.008 ± 0.0069
65 | TATTATGGCG | 1.04 ± 0.014
66 | CGTTCCCGTG | 0.9811 ± 0.0031
67 | ACAGTGTGTG | 1.02 ± 0.027
68 | GGATGGGGCT | 1.02 ± 0.03
69 | CGACCGGGTA | 1.02 ± 0.023

Row | Sequence | switch fluorescence ratio
70 | GGGTATGAGC | 0.969 ± 0.04
71 | GCTCTGACGG | 1.054 ± 0.0086
72 | CCACAATTTT | 1.43 ± 0.63
73 | CGGCTTTTTA | 0.9588 ± 0.0056
74 | TTTTAAGTGT | 1 ± 0.045
75 | TCGATTGTGG | 1.02 ± 0.03
76 | TAATAGTGGG | 1.03 ± 0.041
77 | TTAGGGGGT | 0.976 ± 0.059
78 | TTGGATTAAC | 1.01 ± 0.029
79 | GAAGGCGTTT | 0.9778 ± 0.0032
80 | GTTGTAAGAT | 0.981 ± 0.028
81 | TATTGCCAGG | 1.1 ± 0.036
82 | AAGTGGTGTC | 0.99 ± 0.13
83 | CAAGTGCCTG | 1.01 ± 0.025
84 | TTGGCAGATT | 1.004 ± 0.0061
85 | AAGGGGGCCT | 1 ± 0.024
86 | TAATACGAGT | 1.02 ± 0.014
87 | CGGGGTTTCG | 0.993 ± 0.028
88 | CAAAAGTTGA | 1.01 ± 0.053
89 | TTCGTTCGGG | 0.992 ± 0.041
90 | AATGGTTGGT | 0.994 ± 0.016
91 | ATTAACGAGG | 1.04 ± 0.013
92 | TACTATACGA | 1.367 ± 0.0015

Row | Sequence | switch fluorescence ratio
93 | TTGTTGGTCT | 1.009 ± 0.0075
94 | GGGAGGCGGG | 0.99 ± 0.019
95 | GCAGACCTAT | 0.989 ± 0.058
96 | TTTTTCTTCG | 1.21 ± 0.099
97 | TATTGACAGA | 1.022 ± 0.0053
98 | CGACTTACGG | 1.11 ± 0.03
99 | TGTTTTTTAG | 1.01 ± 0.024
100 | AATGAGGGGA | 1 ± 0.013
101 | AAACTGGAT | 1.01 ± 0.033
102 | GCTTTTGGCT | 0.992 ± 0.023
103 | TTTAAGAAGG | 1 ± 0.015
104 | GGAGATAGGT | 1.04 ± 0.038
105 | AACATATGTT | 0.972 ± 0.025
106 | GTGGCTAACG | 0.972 ± 0.06
107 | TAAAAAAAAT | 1.02 ± 0.033
108 | CTACATACGG | 1.52 ± 0.02
109 | TTCTTACTTT | 1.48 ± 0.64
110 | ATGTTAGGCT | 0.998 ± 0.025
111 | ATTGGCGTAT | 0.987 ± 0.026
112 | CTAGGGGGTA | 0.971 ± 0.035
113 | GGAGTTCAGG | 0.9905 ± 0.0024
114 | AGATAGGTTG | 0.974 ± 0.038
115 | CCGCGGCGGG | 1.04 ± 0.028

Row | Sequence | switch fluorescence ratio
116 | CTCAGAGTTT | 1 ± 0.012
117 | AACGCATATT | 1.85 ± 0.78
118 | ACGAGTTAGT | 0.9933 ± 0.0045
119 | GAGAATCACG | 0.9961 ± 0.0024
120 | GGAAAAAGAT | 1.04 ± 0.018
121 | ATGTACTTGG | 1.02 ± 0.013
122 | TGGAGCGGGA | 1 ± 0.022
123 | TTGTTAATTG | 1.01 ± 0.041
124 | CGCGGTCAAC | 1.35 ± 0.2
125 | AGCAATGCTT | 3.09 ± 0.29
126 | TGATTTGAAG | 0.9464 ± 0.007
127 | TTCTAGTAA | 0.998 ± 0.021
128 | CGAGCGTGTG | 0.9998 ± 0.0047
129 | GCCGGTCGGG | 0.985 ± 0.013
130 | CGAAGCTGGT | 1.075 ± 0.0037
131 | ACGGGGGGAG | 1.01 ± 0.035
132 | CATAGAAAAT | 0.965 ± 0.0069
133 | AGGTATTATC | 0.968 ± 0.014
134 | AAGGGGACAG | 0.995 ± 0.03
135 | CGGGGTCTGT | 0.999 ± 0.022
136 | CATGATAGCG | 0.9981 ± 0.0019
137 | TTTCATGGCT | 1.01 ± 0.035
138 | GATTTTGGGA | 0.9815 ± 0.0068

Row | Sequence | switch fluorescence ratio
139 | TCTTCCGGTG | 1.68 ± 0.045
140 | AAATTAGCGG | 0.987 ± 0.032
141 | AGGTGTGATA | 1.1 ± 0.051
142 | TTTCCATGGA | 0.984 ± 0.029
143 | TTTTACGATG | 1 ± 0.012
144 | CGAATAGTTG | 1.005 ± 0.0085
145 | TGGAGGTTAT | 0.9935 ± 0.0081
146 | AAGTTGACGG | 0.985 ± 0.011
147 | TCTGTAGCGG | 1.13 ± 0.037
148 | GTGTTATAAT | 0.986 ± 0.021
149 | ATAATGTAGC | 1.04 ± 0.036
150 | TGCCGCCTTG | 0.979 ± 0.024
151 | TGGGGTAGGT | 0.999 ± 0.011
152 | ATTACCGGCG | 0.996 ± 0.025
153 | CGTACTGAAA | 1.04 ± 0.0087
154 | GGAACTTGTG | 0.9732 ± 0.0075
155 | TTACGGGGAT | 1.04 ± 0.016
156 | GTATAGTCGG | 1.04 ± 0.017
157 | TATATGCTGT | 0.98 ± 0.011
